Assay [1] concerns the target IRS-1, endogenous in Rat-1 fibroblasts and L6GLUT4myc myoblasts (UniProt P35570). Description: cell-based or functional assay.
Assay [2] concerns the target IRS-1, endogenous in COS cells. Description: cell-based or functional assay.

Consider one substance from US20040086863A1.

Sequence of IRS-1, endogenous in Rat-1 fibroblasts and L6GLUT4myc myoblasts (P35570 whole entry): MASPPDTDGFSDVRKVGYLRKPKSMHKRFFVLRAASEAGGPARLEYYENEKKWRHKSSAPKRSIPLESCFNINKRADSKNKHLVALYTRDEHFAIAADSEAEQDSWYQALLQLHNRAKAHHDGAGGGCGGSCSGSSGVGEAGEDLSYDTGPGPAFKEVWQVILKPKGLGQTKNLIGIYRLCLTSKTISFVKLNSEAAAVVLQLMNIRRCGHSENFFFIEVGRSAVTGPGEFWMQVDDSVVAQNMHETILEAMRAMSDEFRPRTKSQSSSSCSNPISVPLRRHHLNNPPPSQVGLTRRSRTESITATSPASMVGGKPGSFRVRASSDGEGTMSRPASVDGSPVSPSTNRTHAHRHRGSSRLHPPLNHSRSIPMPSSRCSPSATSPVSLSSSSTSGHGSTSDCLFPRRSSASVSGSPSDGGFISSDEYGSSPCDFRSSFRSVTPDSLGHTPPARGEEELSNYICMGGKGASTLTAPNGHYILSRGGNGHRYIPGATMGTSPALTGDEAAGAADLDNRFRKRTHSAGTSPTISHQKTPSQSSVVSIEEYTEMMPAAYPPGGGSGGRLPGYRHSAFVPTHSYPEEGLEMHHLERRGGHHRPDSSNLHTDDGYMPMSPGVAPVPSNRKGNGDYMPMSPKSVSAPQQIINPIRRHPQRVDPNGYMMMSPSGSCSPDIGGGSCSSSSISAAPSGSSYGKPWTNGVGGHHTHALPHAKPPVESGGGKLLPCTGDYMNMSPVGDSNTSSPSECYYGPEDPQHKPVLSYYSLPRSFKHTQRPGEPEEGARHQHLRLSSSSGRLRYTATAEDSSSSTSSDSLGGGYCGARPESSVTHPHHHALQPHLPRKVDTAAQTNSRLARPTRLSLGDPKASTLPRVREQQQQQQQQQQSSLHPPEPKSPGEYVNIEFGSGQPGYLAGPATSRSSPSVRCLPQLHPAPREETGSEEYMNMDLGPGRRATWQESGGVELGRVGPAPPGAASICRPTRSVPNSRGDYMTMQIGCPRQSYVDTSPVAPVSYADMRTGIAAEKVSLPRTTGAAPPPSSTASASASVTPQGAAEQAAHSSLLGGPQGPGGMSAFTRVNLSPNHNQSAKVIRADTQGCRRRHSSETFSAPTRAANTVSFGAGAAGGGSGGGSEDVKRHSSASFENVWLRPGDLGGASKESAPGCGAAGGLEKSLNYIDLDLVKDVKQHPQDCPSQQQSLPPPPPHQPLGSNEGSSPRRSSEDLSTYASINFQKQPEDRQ
Sequence of IRS-1, endogenous in COS cells (Q28224 whole entry): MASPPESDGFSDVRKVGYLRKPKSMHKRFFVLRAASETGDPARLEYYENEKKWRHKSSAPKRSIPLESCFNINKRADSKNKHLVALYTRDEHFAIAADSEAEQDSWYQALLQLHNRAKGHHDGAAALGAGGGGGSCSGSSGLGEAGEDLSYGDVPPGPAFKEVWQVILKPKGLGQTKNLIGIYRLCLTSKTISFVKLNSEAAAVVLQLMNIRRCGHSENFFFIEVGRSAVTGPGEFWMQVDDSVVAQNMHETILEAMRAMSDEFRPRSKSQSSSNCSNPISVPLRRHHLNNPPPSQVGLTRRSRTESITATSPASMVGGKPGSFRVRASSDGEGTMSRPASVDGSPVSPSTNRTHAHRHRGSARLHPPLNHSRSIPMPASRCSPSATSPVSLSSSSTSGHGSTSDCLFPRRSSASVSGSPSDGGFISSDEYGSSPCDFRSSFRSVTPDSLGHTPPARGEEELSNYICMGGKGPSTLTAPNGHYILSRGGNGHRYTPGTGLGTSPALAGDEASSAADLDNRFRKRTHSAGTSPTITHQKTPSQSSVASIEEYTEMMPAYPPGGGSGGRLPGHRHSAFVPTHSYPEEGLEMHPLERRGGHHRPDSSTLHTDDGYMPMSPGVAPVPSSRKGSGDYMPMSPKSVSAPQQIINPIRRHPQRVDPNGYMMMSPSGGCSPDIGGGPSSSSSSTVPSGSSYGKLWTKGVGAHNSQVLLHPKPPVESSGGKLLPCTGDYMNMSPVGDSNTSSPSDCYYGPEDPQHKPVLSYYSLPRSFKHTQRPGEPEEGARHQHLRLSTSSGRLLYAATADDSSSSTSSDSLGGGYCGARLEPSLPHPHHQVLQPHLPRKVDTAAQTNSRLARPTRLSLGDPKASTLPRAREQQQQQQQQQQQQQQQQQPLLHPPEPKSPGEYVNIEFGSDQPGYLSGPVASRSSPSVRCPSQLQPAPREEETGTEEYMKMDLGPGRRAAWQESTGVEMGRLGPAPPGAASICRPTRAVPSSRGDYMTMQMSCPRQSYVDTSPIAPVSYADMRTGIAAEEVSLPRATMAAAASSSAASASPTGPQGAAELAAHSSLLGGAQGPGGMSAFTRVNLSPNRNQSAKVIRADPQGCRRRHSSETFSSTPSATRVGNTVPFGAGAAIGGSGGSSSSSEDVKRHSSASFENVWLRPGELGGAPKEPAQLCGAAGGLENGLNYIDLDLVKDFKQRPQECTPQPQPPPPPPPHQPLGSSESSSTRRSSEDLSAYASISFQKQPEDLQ

In turn, “HA-tagged dominant-negative PHIP (DN-PHIP), PHIP PBR region alone (residues 8-209) (from UniProt Q8VDD9 927-1128)” yielded an insulin-dependent GLUT4myc membrane translocation in L6GLUT4myc myoblasts in assay [1] of more than 90%. Moreover, the IRS-1 tyrosine phosphorylation in insulin-treated cells in assay [2] was more than 5 fold.
